In the supplement of paper PMC9170038:

Tested on: MS2 coat protein
Assay: apparent KD of MS2 coat protein; designed switch direction (-1 OFF switch, 1 ON switch): -1; higher = weaker reporter binding
How it was run: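 The buffer was Tris-HCl pH 7.5 with KCl, MgCl2, BSA, DTT, tRNA and Tween-20. In it, SNAP-549-labelled MS2 coat protein was titrated in doubling steps from 0.7 or 1.5 nM to 3 µM over chip-bound RNA switches transcribed by stalled E. coli RNA polymerase on Illumina chips. Apparent KD is the per-design median over clusters of curve fits to normalised fluorescence.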

[1] = Eterna round: R95, input ligand: FMN 200 uM
[2] = Eterna round: R95, input ligand: microRNA oligo, concentration not stated
[3] = Eterna round: R95, input ligand: none
[4] = input ligand: microRNA oligo, concentration not stated

Sequence | apparent KD of MS2 coat protein [1] | apparent KD of MS2 coat protein [2] | apparent KD of MS2 coat protein [3] | apparent KD of MS2 coat protein (input ligand: FMN 200 uM) | apparent KD of MS2 coat protein (input ligand: none) | apparent KD of MS2 coat protein [4]
UAGGUGUGAGGAUAUGGUAAAGAUAAGAUGAUAAAAGAACUCCAGAAGGCACAUGAGGAUCACCCAUGUAGAUG [Mat - Exclusion 4 - Mod of JL - D34] (puzzle: Exclusion 4) | 62.9 nM | 22.8 nM | 25.8 nM | – | – | –
CGGUGACAUGAGGAUCACCCAUGUUAGGAUAUGACUUCGUACGCGAACAGGUAUGGAGUCAGAAGGAGCAUCCA [Eternabot (Original) Solution 45] (Eterna round: R97, puzzle: Exclusion 1) | – | – | – | 80.6 nM | 38.4 nM | –
UUAUUAUAUGUAGGAUAUGCAUAUUAUUAUUAUGCAGAAGGACAUGAGGAUCACCCAUGUAUAUUAUUGUUAUAUAUUAUAUAU [Title] (Eterna round: R96, puzzle: Exclusion NG 1) | – | – | – | – | – | 21 nM
UGUACUAUGCGAGCUGACUUGCGUAGUGCAGCAGGUGAAACAUGAGGAUCACCCAUGUCCUCAUUUGCUCGUCUUAU [SL-sv3-2.02 JL mod] (puzzle: Sensor v3, turn-off variant 2) | 47.7 nM | 599 nM | 41.6 nM | – | – | –
AGAGUGCUGCGAGGAUAUACAUGAGGAUCACCCAUGUAAAAGUGUGAGGCAAAGCCUCACACUAUGUAGAAGGCGCAGUACUCA [Mat - Exclusion NG 2 - Mod of JL - D11] (Eterna round: R96, puzzle: Exclusion NG 2) | – | – | – | 20.2 nM | 19.3 nM | 12.6 nM
GGUAUACAUGAGGAUCACCCAUGUCAGGAUAUGUAUGCAUAUGCCGAAAGGCAUAUGCUCAGAAGGGACUAUAU [AK-MS2ROC-r4-exclusion1-4.0] (Eterna round: R97, puzzle: Exclusion 1) | – | – | – | 42.4 nM | 32 nM | –
ACAUGAGGAUCACCCAUGUAAACAUGAUGGCUGAUGUAGAGCUAGGAUAUGAGUGACUUUCUAUCUCAGAAGGAGCUUGACUGG [Deportation 44 - Jieux - Exclusion NG 3] (Eterna round: R96, puzzle: Exclusion NG 3) | – | – | – | 30.1 nM | 45.2 nM | 26.9 nM
UUUAAUCAUGUAGGAUAUGCGUGGCGAAGCUAUGCAGAAGGACAUGAGGAUCACCCAUGUUCUAGCGUCUGCGUACAGAUGCUA [JL ENG1 1.36] (Eterna round: R96, puzzle: Exclusion NG 1) | – | – | – | 334 nM | 47 nM | 33 nM
AAAACAAACGAAGGAUAUGCGCGAAAAUGACUAGCAGAAGGUCGACACGGGCGGAUCCGACAUGAGGAUCACCCAUGUAAAACU [Tied] (Eterna round: R96, puzzle: Exclusion NG 1) | – | – | – | 1200 nM | 490 nM | 389 nM
AAGAAACAUGAGGAUCACCCAUGUGAGGAUAUGAGGAAGAAAAGAAAAGAAAGAAGAUUCAGAAGGCACAAAGG [salish99-ex1_r3_058] (puzzle: Exclusion 1) | 96.3 nM | 35.1 nM | 59.1 nM | – | – | –
UAAUAUAGUGUGAGGAUAUGCUGGUCGAUAGAUCAGCAGAAGGCACAUGAGGAUCACCCAUGUAAUAUAUUAAA [Mat - Exclusion 4 - JL Mod - D36] (puzzle: Brourd's mod of Exclusion 4) | 64.6 nM | 30.7 nM | 42.9 nM | – | – | –
UCGCUCCGUGUAGGAUAUCGCCGUAUGAUGCGGCGAGAAGGACAUGAGGAUCACCCAUGUAUGUUAUUAUCACGCGUGGCGCAA [Design 63] (Eterna round: R96, puzzle: Exclusion NG 1) | – | – | – | 17.4 nM | 16.9 nM | 12 nM
AUCGUGCAGCUUUGCUGUACGAGUACAUGAGGAUCACCCAUGUAGGAUAUGGUACGCUUUGCGUGCUAGAAGGAUAUGUGUUUG [EX ENG3 1.44] (Eterna round: R96, puzzle: Exclusion NG 3) | – | – | – | 58.6 nM | 43.4 nM | 29.8 nM
ACAAGUUUUUUGUUUUUUAACAUGAGGAUCACCCAUGUAUUUUUAGAGGAUGUGGGAAUAAGAGCUCUUUGUCUUAU [JR_SV3TOV1_Sub097] (puzzle: Sensor v3, turn-off variant 1) | 38.6 nM | 90.3 nM | 41.2 nM | – | – | –
UCUGGUCGGAAGGAUAUGGUCGGGUCAAAUCGUCCAGAAGGUCUGACAUGAGGAUCACCCAUGUGAGUCCAAAG [Ataesma] (puzzle: Exclusion 6) | 77.5 nM | 20.4 nM | 21.8 nM | – | – | –
CCGAAUAUGCAGGAUAUCGUAUCGGAAACGAUACGAGAAGGGCAAACAUGAGGAUCACCCAUGUUCCUUAACGG [Fiskers Ex 6 - 14] (puzzle: Exclusion 6) | – | 15.8 nM | – | – | – | –
GUAGAGUAAGGAUAUACUGAAUAGGAUAGAAUGGUUAGAAAGUAGAAGGUACAUGAGGAUCACCCAUGUAAUGU [Excluse me!!!! 19 - Jieux - Exclusion 4] (Eterna round: R96, puzzle: Exclusion 4) | – | – | – | 20.9 nM | 24 nM | 18.6 nM
GACUGGACGUGGUCUGGUUACAUGAGGAUCACCCAUGUAGGUCUAAGAACAUGCCUUUUGUACGCUCGUCUUAUAUA [JR_SV3TOV1_Sub065] (puzzle: Sensor v3, turn-off variant 1) | 37.9 nM | 20.7 nM | 39.6 nM | – | – | –
AAAAAUUACAUGAGGAUCACCCAUGUAGAGUGGGAAGAGAGAUAGGAUAUGAUGUGAGAAUCAUAUCAGAAGGAUCGAGACUCA [AK ExNG3-2.1] (Eterna round: R96, puzzle: Exclusion NG 3) | – | – | – | 129 nM | 119 nM | 126 nM
GCACGGAGUGUAGGAUAUCUGUGCGAUUAGCUCAGAGAAGGACAUGAGGAUCACCCAUGUGUGUUCCAAUAAUAAAAUCCGUGC [Eli exng1 - 063] (Eterna round: R96, puzzle: Exclusion NG 1) | – | – | – | 1500 nM | 329 nM | 270 nM
CAGUACUGAGGAUAUACAUGAGGAUCACCCAUGUGAUAAGGUUAGGAAACUAACCUAUGUAGAAGGCAGUACUG [Eli x3 4.08] (Eterna round: R97, puzzle: Exclusion 3) | – | – | – | 603 nM | 104 nM | –
GCUUGCUUUUUGGUUUUCAACAUGAGGAUCACCCAUGUUCGUCUUGUGCCCGGGCCCGGGCGGUGCCCGGGCCCGGG [A 9%] (Eterna round: R97, puzzle: Sensor, turn-off variant 1) | – | – | – | 17.9 nM | 17.8 nM | –
AAAAGGUGAGGAUAUACAAUGAUCCUCAUAAUAACCCGAAGACAUGAGGAUCACCCAUGUAGAAGGCACAAAUA [Istive] (puzzle: Exclusion 2) | 33.4 nM | 16.5 nM | 19.8 nM | – | – | –
AGAACACAUGAGGAUCACCCAUGUCAGGAUAUCGACUGAACAGCUUCGGCUGUUCAGUCGAGAAGGGACAAUUA [Brourdxlusion 6 - Jieux - Exclusion 1] (Eterna round: R97, puzzle: Exclusion 1) | – | – | – | 120 nM | 55.8 nM | –
